# Test: soluble fraction after stress (log2 fold change); higher = more stays soluble; pooled small domains, quantitative proteomics
# Conditions: stress: 75 degC
# 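Note: 20 min heating vs room temperature control held 20 min.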
row,Sequence,soluble fraction (log2)
1,HMFPELTDDEQLIVSTLAKTNDMQINMLAVRTGIPVQRMSALLFSLEMKGVVKMYAGGTYHLL,-2.93
2,HMFPNQLLISRLSNQLSASERFAAVSSIAQLKNIDYDVLHVLVHTMNSDPNSNVRLAALEALSR,-0.459
3,HMFPQQGEIRQGVIASITPDQILVNVGTKSEGIISGKELEAISKSERDSLNVDQKIAVYILDPEDSNG,0.395
4,HMFQNPSQVVTTRVGELRAAIPTAQQGRITMGVAVVEDANSVRSVLISTSEPRGYLRPGVTLGPGETMV,0.0661
5,HMFQPFFENLRKASIPVSLREYLTFLEGMKKGLVTYDIEAFYFLARAAMVKDERNIDKFDRAFSATFKG,-0.306
6,HMFQTAADVAYRIISQKILDGEFPPGMKLSRRKMAEVTSVSVIPVIEALKKLEEDGLVESKPQWGSFVTI,-1.69
7,HMFQYEKIKDYILTGLEEGTWQAGDKIPSEAELVMSLNVSRMTVNRAVRELANSGLLVRIPGAGTFVATE,-0.643
8,HMFSIDRNIRRLRKEAGLTQEELAQKLFVTRQTISLWELGKVHPDLETLQKLAEQFQVDLLQVLYGPE,-2.33
9,HMFSLDMDRLVRPGFMASGNVTFSDGVTGKWALDQMGRLALETAQKGYQPSPADVQAFQRELQQQLQRQG,0.0415
10,HMFSPTKLKEKRESQGLSQSQLASSLGISRASYFNWESGKTKPNQNNLSKLSEILNVDPRYF,0.489
11,HMFSSVSVPAELSNQRFDKVVAELTPDLSRSKIKQLILLGKVLLNGEVTPPKQKVETGDEIEIFYTRQIE,-0.797
12,HMFTLDIGTIIRNRRLELNLTLEEIGNAVGVSKSTVQKWENGFISNMKRDKISALAKVLNINPVTLITGEY,-3.44
13,HMFTLNEIIGQKIRNARISAGLTLDELSKMTGISAAQLSSLETGYRRANIDTLYAIAKAIGIDVSNLLKY,-1.39
14,HMFTRFTVAQDGWTIGGFTAKEMAVSTAKQHAVDTGKPVTVVAHVAGGGSREAIFNSDGTNDKIWN,0.065
15,HMFTYEETIGKSADVYLTIPALKAGKGKIIISVRGSVHELDAMTNNAEKISTGAVVKIVRIEHGNILLVEN,-1.69
16,HMFVEKDSIINKGNNSYNFVITDNNNKVLVEYNGLLPDLFKEEQGVVIEGRLKSDFIIHAFTVF,-0.0707
17,HMFVGVDMAVKEEIGKEGVAFTDLRPAGKVSIGDDVYDAVSETGAFITRGTSVRVLKYQAGQVYVVK,-1.3
18,HMFVTFFHELKSAGVPVSLREYLTLMEAMDRDLASRRVEEFYYLARTALVKDERNLDKFDRVFGHVFKGL,-4.08

row,Sequence,soluble fraction (log2)
1,HMFWVESDVDFVDKTSAHNAIKENERVIGMYISYRLNGTWTTEQYVGIDTSKDNWENPDNWNIL,-1.42
2,HMFYLPEPLTEQELRILGMLLDGRSNPEIAAELFIAVGTAKWHVHNILQKLGVANRAQAIVKAHELGLT,-2.08
3,HMFYNELMNFIVYKDSQKIGKIVNINDKLPQPVFEVLINDKKFMVPIHDDFIEKIDKEKKSIHIVIPDGLL,-0.684
4,HMFYWTDLIGLDVINTADERLGKVVGLIETGANAVLRVMGDDQVERLLPFGSAVVLTVEKEAGQIRVEW,-2.11
5,HMGAARVTPLYNLRLREGPSTATARLDVVPRGTTLEVRAWDETGDWAQVEYRGQIGWIAAWLAEVEGEAP,-0.69
6,HMGADSFTGYTPIHKIDNPSDGINDGASYVVYFQKDGTDPTEFYKAVNANASTLAQLTSGTEYDLASSKKL,0.56
7,HMGAEIRDKVRAALAGLNPRAAEIFVMRYFDGYGNREIARLLNTSWSTIAVTLHRTRAKLQKELK,-0.0467
8,HMGAGDKQAQQASLMQIIALQKEGMALGLVEPKHLYHSFSKMIENAGFKDVQSFAVDPSTQQ,-0.0432
9,HMGAGEQMLPKVMFAEGDRVVHKVFGEGTVVTVDRPAQTYDIQFDKLRGTRRIMFRAELEGI,-0.693
10,HMGAGLDDLVRKSLHNAGLKADDNVVSWISGNLGSDRMVSRMELEKLVLFVAGQSEITLEDAQAVIGD,-0.524
11,HMGAGLKIGNDHEYANYLEYKVSVEKYAPGAILGEIKQKGIQFNTTISKTTFYRYITDGVFLTITNADLPV,0.374
12,HMGALTGQERRAEIMNILRQSTMPLSGAALGKQLGVSRQVVVQDIALLRQSGEEIYATNRGYVTG,-0.417
13,HMGAQPLIEPLSERELEVLALIAEGLTNAEIGRRLFIATGTVKRHVNTIYGKLDVHGRIEAIARARDLHLI,-1.25
14,HMGAQRDFELQLIDVIRQNPGLTYKAYGEKLSVSQATVKRLVAKLKETGSIRREGSQRKGTWIITDD,-1.49
15,HMGARWPIQDRPLTATEAAAVRRMYAGGLPHGRSKNSVITEVWGDLSNKPKRLDWLNQALEGGA,0.0155
16,HMGASGVEVPDVAGMSTAQAVSSLEQKGFVVNRTESYDAGVEKGNVISQSPEGGTKAPNGSAVTIRISQGA,0.831
17,HMGASIQITVNNTPVMLKNKTHYTLVDVLDFYPFDLSKMGGTELYTAINGVKSGFTDPVHANDSIEIYWI,-2.49

# Reference: the domain aggregation screens of Martell et al. (2025)
